From paper PMC4006704
Values belong to the molecule of their own block, whether it stands above or below them.

Assays:
[1] = biological target: GST-Med19 (Drosophila melanogaster) (UniProt Q9VVL6); test: pull-down; 35S-labelled Hox / homeodomain peptides on immobilised GST-Med19 (Figures 1E, S2)
[2] = biological target: multiple GST-Hox proteins (Drosophila melanogaster); test: pull-down; 35S-labelled Med19 (full length or deleted versions) probing immobilised GST-Hox fusions or GST-HDAntp; standard conditions, essentially as in ref. 68 (Figures 1A, 5A)

percent of input bound [1]: 7 % of input
Molecule: HD region of Drosophila Ubx, with its hexapeptide (HX), linker region and HD (wild-type) (domain or fragment)

percent of input bound [1]: 5 % of input
Molecule: HD region of crustacean Artemia Ubx (linker-shortened C-terminal region) (domain or fragment)

percent of input bound [2]: > 5 % of input
B1: 35S-labelled full-length Med19 (Mediator complex subunit 19) (natural protein)
chain: MMSNYGNMMDSPKSSPHGGGRSPVVARQDSSGTLKTTISLGKTPTIIHTGPFYSMKEPPAKAELTGDKDLMTEYGLHHTLTKFKEKKFKESLASFLQNIPGINDLITHPVENSTLRSVIEKPPIGGKELLPLTPVQLAGFRLHPGPLPEQYRTTYVTPARKHKNKHKKQKHKDGVTTGQESTLLDSAGLETYEKKHKKQKRHEDDKERKKRKKEKKRKKKNQSPEPGVGLLPGGASLGGAAGVMGATSLGSLGGGPGGPGLSSLSASMGPGVVGNMNSFSSSMQMQQQQQMPMQQQQMSSGGLLGSVLGTSGGPGGGGGGGGGGGGGVGGSLLMSQF
modifications: 35S-labelled
